This note sets out measurements from patent US20230105457A1, “Immunogenic Compounds For Treatment Of Adrenal Cancer” (ENTEROME S.A., priority 2019, published 2023).

Read-outs that look alike come from different tables or passages of the source.

In assay [1] the test system is CD8 T cells from PBMC of HLA-A*02 healthy donors. Description: Detection of peptide-specific CD8 T cells with pMHC multimers after in vitro amplification (Example 14). The assay is classed as cell-based, human. The conditions noted are these: one HLA-A2 healthy donor, after in vitro amplification with bacteria peptide loaded T2 cells. The method, then:
Identification and quantification of T cells specific clones were performed using peptide MHC multimers (pMHC). pMHC multimers are recombinantly produced and coupled with fluorescent labels. Binding of pMHC multimers to T cells allows identification and sorting by flow cytometry of specific T cells harboring TCRs able to specifically recognize selected pMHC complexes.
In vitro amplification method and specific pMHC multimers have been used for identification of IL13RA2-L-, BIRC5-B1- and FOXM1-B2-specific T cells. pMHC multimers were generated for all the bacteria peptides and their respective human counterpart. PBMCs from several HLA-A*02 healthy donors (up to 19 donors) were collected, enriched after CD137 and CD8 selection and subjected to multiple rounds of in vitro amplification with bacteria peptides loaded T2 cells to increase the number of specific T cell clones. Detection of bacteria and human peptide-specific CD8 T cells using cytometry analysis with the fluorescent multimer was performed on enriched CD8 T cell populations.

The target of a further assay is HLA-A*0201 (Homo sapiens, UniProt P04439, D140Y/D185E/D98H/E176V/E277Q/G131W/G231S/I119V/I121R/I166T/I218V/L300P/L318F/N151K/N90K/P208A/P217A/Q86G/Q94H/R138H/R169H/T345S). As to conditions: for Mean fluorescence intensity: T2 cells.

As for “WLPFGFILI [IL13RA2-H, reference compound]”, in assay [1], the “Peptide-specific CD8 T cells detected (pMHC multimer)” value is recorded as 0.22%. Moreover, in the assay with HLA-A*0201 (T2 cell line, HLA-A*0201, Example 13, protocol as in Example 3), the “Concentration of peptide that induces 20% of HLA-A2 expression” value worked out at 62.3 µM. In addition, in the assay with HLA-A*0201 (T2 cells (Example 1)), the “Concentration that induces 20% of expression of the HLA-A*0201” value came out at 100 µM. Besides, the Mean fluorescence intensity is reported as 7.46 in the assay with HLA-A*0201 (peptide at 0.1 μM (Example 1)), 9.41 with HLA-A*0201 (peptide at 1 μM (Example 1)), 11.61 with HLA-A*0201 (peptide at 10 μM (Example 1)) and 18.64 in the assay with HLA-A*0201 (peptide at 100 μM (Example 1)).
